Where a chain is given by its changes, count along the chain named. Where two headings read alike, the source gives them in different places.
T1: MutS R272A (Pseudomonas aeruginosa, UniProt Q9HY08 1-855, R272A)
T1 sequence: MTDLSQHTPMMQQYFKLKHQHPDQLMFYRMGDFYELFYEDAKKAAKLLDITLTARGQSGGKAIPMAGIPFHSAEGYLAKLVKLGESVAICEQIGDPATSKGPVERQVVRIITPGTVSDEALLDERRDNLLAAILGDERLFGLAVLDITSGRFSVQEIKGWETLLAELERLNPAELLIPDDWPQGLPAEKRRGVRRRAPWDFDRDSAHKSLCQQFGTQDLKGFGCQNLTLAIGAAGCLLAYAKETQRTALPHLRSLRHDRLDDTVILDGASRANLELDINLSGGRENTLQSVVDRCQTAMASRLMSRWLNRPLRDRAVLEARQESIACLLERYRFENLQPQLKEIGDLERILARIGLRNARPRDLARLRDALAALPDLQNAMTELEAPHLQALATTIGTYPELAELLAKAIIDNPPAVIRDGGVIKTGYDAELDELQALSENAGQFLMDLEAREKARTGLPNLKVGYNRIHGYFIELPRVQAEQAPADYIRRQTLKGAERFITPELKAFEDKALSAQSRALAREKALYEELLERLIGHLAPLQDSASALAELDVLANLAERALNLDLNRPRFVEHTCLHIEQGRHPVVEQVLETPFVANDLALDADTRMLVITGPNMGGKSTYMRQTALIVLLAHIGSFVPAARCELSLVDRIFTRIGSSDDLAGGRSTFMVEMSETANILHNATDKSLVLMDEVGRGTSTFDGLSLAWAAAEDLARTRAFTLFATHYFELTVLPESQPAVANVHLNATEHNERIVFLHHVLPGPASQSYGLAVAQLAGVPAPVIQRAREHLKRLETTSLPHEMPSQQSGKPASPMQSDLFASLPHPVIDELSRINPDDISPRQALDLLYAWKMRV

T2: MutS (Pseudomonas aeruginosa, UniProt Q9HY08 1-855)
T2 sequence: T1 sequence with A272R

B1: GT-pDNA (GT 8 nt from 3'-OH) (dsDNA)
DNA 1: ATGTGAATCAGTATGGTTGCTATCTGC
DNA 2: ATTTCCTTCAGCAGATAGTAACCATACTGATTCACAT
B2: dsDNA (dsDNA)
DNA 1: ATGTGAATCAGTATGGTTACTATCTGCTGAAGGAAAT
DNA 2: B1 DNA 2
B3: pDNA (AT) (dsDNA)
DNA 1: ATGTGAATCAGTATGGTTACTATCTGC
DNA 2: B1 DNA 2
B4: GT-dsDNA (GT 18 nt from 3' end) (dsDNA)
DNA 1: B2 DNA 1 with A19G
DNA 2: B1 DNA 2

Columns and labels:
MutS R272A = target: T1, MutS R272A; experiment: EMSA
MutS [1] = target: T2, MutS; experiment: SPR
MutS [2] = target: T2, MutS; experiment: SPR; remark: listed apart in the source

Row | Binder | Kd (MutS R272A) [nM] | Kd (MutS [1]) [nM] | Kd (MutS [2]) [nM]
1 | B1 | 49.3 ± 1 | 53.3 ± 3.7 | –
2 | B2 | 309 ± 20.9 | – | 1960
3 | B3 | 143 ± 8.6 | – | –
4 | B4 | 38.2 ± 0.7 | – | –

Source: article doi:10.1101/2020.05.01.070730 (bioRxiv, 2020)
